Positions count from the first letter of the chain named.

The results in this text go back to article PMC5303827 (Nature Communications, 2017).

What all share (conditions): both partners purified
One experiment deals with T1, Ufd2p (S. cerevisiae, UniProt P54860 1-961).
T1 construct: Ufd2p, S. cerevisiae, amino acids 1-961; also called wild-type Ufd2p; source: E. coli Rosetta (DE3), purified
T1 sequence (looked up): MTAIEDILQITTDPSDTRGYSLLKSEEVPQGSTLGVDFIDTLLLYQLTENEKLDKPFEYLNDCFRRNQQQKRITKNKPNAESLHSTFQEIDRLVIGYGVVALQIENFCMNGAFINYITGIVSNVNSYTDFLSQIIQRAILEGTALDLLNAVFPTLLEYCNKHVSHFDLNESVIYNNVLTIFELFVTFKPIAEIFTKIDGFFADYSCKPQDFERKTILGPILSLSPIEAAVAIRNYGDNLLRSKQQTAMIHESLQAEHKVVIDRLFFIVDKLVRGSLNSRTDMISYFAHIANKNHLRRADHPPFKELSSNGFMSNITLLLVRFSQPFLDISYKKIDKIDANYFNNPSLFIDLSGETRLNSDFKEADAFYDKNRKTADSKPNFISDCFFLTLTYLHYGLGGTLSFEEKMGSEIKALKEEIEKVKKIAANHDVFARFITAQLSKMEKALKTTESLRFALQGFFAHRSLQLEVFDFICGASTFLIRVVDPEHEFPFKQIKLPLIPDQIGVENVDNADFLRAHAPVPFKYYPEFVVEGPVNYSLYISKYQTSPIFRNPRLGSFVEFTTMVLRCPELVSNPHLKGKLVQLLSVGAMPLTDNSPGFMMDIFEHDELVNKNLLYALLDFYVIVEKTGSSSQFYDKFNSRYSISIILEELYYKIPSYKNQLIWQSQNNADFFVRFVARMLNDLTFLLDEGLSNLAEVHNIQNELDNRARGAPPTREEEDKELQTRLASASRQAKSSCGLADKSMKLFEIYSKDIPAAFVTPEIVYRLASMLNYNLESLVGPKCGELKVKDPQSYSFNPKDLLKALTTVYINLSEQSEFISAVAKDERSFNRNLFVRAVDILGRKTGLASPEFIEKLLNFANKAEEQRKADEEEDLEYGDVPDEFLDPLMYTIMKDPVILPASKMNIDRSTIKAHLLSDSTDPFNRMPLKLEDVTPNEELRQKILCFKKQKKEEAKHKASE
Description: pull-down; GST-Rad23p used to pull down Ufd2p, Ufd2p N mut-1 or Ufd2p NLM; blot with anti-Ufd2; GST as control.

The next experiment has as its target T2, Ufd2p NLM (S. cerevisiae, UniProt P54860 1-961, E51A | K52A | L53A | D54A | K55A | E105A | N106A | M109A | N110A).
T2 construct: Ufd2p, S. cerevisiae, amino acids 1-961, two N-terminal loops mutated to alanine; prey of the GST-Rad23p pull-down and enzyme of the ubiquitination reactions; also called Ufd2 NLM
T2 sequence (looked up): T1 sequence (looked up) with E51A, K52A, L53A, D54A, K55A, E105A, N106A, M109A, N110A
The experiment is described as above.

Experiment [1] addresses T3, wild-type Ufd2p (GST pull-down with Rad23p, Supplementary Fig. 14) (S. cerevisiae, UniProt P54860 1-961).
T3 construct: Ufd2p, S. cerevisiae; amino acids 1-961; May be the same as m2 if Ufd2p was the GST-tagged bait
T3 sequence (looked up): T1 sequence (looked up)
The experiment can be described thus: pull-down; GST pull-down of Ufd2p or Ufd2p NLM with Rad23p (Supplementary Fig. 14); which partner carried GST is not told.

For experiment [2], the target named is T4, Ufd2p NLM (GST pull-down with Rad23p, Supplementary Fig. 14) (S. cerevisiae, UniProt P54860 1-961, E51A | K52A | L53A | D54A | K55A | E105A | N106A | M109A | N110A).
T4 construct: Ufd2p, S. cerevisiae; 1-961 with residues of the two N-terminal loops mutated to alanine; May be the same as m12 if Ufd2p NLM was the GST-tagged bait
T4 sequence (looked up): T1 sequence (looked up) with E51A, K52A, L53A, D54A, K55A, E105A, N106A, M109A, N110A
The description is as above.

B1: GST-Rad23p (natural protein, S. cerevisiae, UniProt P32628 1-398, looked up)
chain: MVSLTFKNFKKEKVPLDLEPSNTILETKTKLAQSISCEESQIKLIYSGKVLQDSKTVSECGLKDGDQVVFMVSQKKSTKTKVTEPPIAPESATTPGRENSTEASPSTDASAAPAATAPEGSQPQEEQTATTERTESASTPGFVVGTERNETIERIMEMGYQREEVERALRAAFNNPDRAVEYLLMGIPENLRQPEPQQQTAAAAEQPSTAATTAEQPAEDDLFAQAAQGGNASSGALGTTGGATDAAQGGPPGSIGLTVEDLLSLRQVVSGNPEALAPLLENISARYPQLREHIMANPEVFVSMLLEAVGDNMQDVMEGADDMVEGEDIEVTGEAAAAGLGQGEGEGSFQVDYTPEDDQAISRLCELGFERDLVIQVYFACDKNEEAAANILFSDHAD
notes: Rad23p, ubiquitin receptor for the proteasome, yeast; source: E. coli Rosetta (DE3), purified (Glutathione Sepharose 4B, size exclusion chromatography); not shown: GST, N-terminal, kept
For B1, the binding result in the experiment with Ufd2p and with Ufd2p NLM was “binds” in each case.

B2: Rad23p (GST pull-down with Ufd2p, Supplementary Fig. 14) (natural protein, UniProt P32628 1-398, looked up)
chain: B1 chain
notes: Rad23p; May be the same as m19 if Rad23p was the GST-tagged bait
On to B2, for which the binding result in experiment [1] and in experiment [2] was “binds” throughout.
